Series [1] deals with the molecule itself. The series is described as follows: SEC; HiLoad 16/600 Superdex 200 PG, 1 ml/min, 25 mM Tris-HCl pH 8.0, 200 mM NaCl, 5% glycerol; proteins incubated together at 4°C for 30 min before the run; each protein also run alone; peaks checked by SDS-PAGE. In general terms: SEC sorts molecules by how far they enter the pores of the column.
Series [2] has as its target T1, ComZ (residues 31 to 554), Thermus thermophilus HB27 (Thermus thermophilus HB27, UniProt Q8KPZ1 31-554).
T1 construct: Cloned into pET-22b (NcoI/XhoI); also called recombinant ComZ fragment; comZ-22b construct; source: E. coli T7 Express, purified (HisTrap HP, SEC); not shown: His6, C-terminal, kept
T1 sequence (looked up): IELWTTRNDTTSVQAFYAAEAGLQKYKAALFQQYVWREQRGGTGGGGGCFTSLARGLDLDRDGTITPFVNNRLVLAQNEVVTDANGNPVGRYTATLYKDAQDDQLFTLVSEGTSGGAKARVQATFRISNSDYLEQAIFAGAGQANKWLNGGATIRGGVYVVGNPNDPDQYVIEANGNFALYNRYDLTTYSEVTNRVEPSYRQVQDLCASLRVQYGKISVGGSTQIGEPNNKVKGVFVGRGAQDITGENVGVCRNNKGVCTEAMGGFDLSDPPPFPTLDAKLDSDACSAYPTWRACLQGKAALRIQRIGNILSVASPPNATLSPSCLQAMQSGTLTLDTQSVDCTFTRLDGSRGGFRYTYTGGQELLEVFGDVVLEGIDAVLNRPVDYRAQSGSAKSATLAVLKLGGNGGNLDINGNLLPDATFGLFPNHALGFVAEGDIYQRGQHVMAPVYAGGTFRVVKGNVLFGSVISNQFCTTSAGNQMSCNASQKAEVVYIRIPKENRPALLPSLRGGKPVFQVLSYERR
Description: ITC; MicroCal PEAQ-ITC; 20 aliquots of 2 μl PilA2 (314 μM) titrated into 300 μl ComZ (33 μM), 25°C; fitted assuming a single binding site. As to conditions: both partners purified.

B1: PilA3 soluble domain (residues 33 to 233), Thermus thermophilus HB27 (domain or fragment, UniProt Q72JC2 33-233, looked up)
chain: ELARNTQARSELQDRVRMVMQVVTADLQMAGARYWNSGNQNQAFSLPLPPLSGSNMGPKDTLTLYYVTSLRDLASACRRVDYGFEGDTLRRSDVNATPSSGSDCTTPPPNSQPLAEGMLALDIQYQCSDGSRKDTPDCGTDAYPRSAKVTVAGYSLTSVTNPGPASLTTVTGKTLACPQGRACYALTQEVLMPNLKPLPTP
notes: Synthetic gene (GeneArt), codon-optimised for E. coli, in pET-22b (BamHI/XhoI); source: E. coli Lemo21(DE3), purified (StrepTrap HP, SEC); not shown: Strep-tag II, C-terminal, kept
In the case of B1, in series [1], the binding result was “binds”.

B2: PilA2 soluble domain (residues 33 to 193), Thermus thermophilus HB27 (domain or fragment, UniProt Q72JC3 33-193, looked up)
chain: RASAQARFATDAKAAAVQVLERRSAEVLKSEIVPALSPYKDAPLDPDNPSGNWRSFYFVDYYFSCPTRVAPSPKQRGGSVANLRPGLTCSGTETIFGIPVAWDIRGENGILGEGVVTVVVTATHPRGPKVTLGRRVTCYDVYPSPTQDQPAPCPPPGGGRP
notes: Synthetic gene (GeneArt), codon-optimised for E. coli, in pET-22b (BamHI/XhoI); also called recombinant PilA2; source: E. coli Lemo21(DE3), purified (StrepTrap HP, SEC); not shown: Strep-tag II, C-terminal, kept
The term Kd denotes a measure of binding affinity in units of concentration. A low value points to a tighter complex. The stoichiometry N is the number of molecules, sites or subunits per partner or assembly. In the case of B2, in series [2], the affinity, expressed as Kd, was 690 nM; the dH stood at 2.3 kcal/mol; the “stoichiometry N” value is 1.1.

The record behind these values is paper PMC6561018, “Structure and Properties of a Natural Competence-Associated Pilin Suggest a Unique Pilus Tip-Associated DNA Receptor” (mBio, 2019).
